{"source": "patent US20120270784A1", "about": "(THERATECHNOLOGIES, published 2012)", "note": "Where no end group is shown, it is not given here."}
{"biological_target": "T1, human GRF receptor (human, UniProt Q02643 23-423)", "T1 sequence (looked up)": "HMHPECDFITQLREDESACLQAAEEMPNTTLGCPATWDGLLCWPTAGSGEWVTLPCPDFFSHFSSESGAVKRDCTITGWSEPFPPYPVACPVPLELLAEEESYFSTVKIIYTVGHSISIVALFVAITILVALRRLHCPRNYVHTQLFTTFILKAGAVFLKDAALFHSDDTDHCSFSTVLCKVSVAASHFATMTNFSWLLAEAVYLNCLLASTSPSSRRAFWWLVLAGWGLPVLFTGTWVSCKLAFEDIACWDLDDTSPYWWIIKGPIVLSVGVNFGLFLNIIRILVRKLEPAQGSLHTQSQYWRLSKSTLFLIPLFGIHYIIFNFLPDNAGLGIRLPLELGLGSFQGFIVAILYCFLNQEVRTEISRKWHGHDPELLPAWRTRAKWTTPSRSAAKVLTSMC", "experiment": "cell-based or functional assay", "units": {"EC50 as assessed by alkaline phosphatase (AP) induction": "nM"}}
{"binder": "YADAIFTDSYRKVLAQLKARQDILARAAR (HELM PEPTIDE1{[CC/C=C/CC(=O)[*:2]].Y.A.D.A.I.F.T.D.S.Y.R.K.V.L.A.Q.L.K.A.R.Q.D.I.L.A.R.A.A.R.[am]}$$$$V2.0; SMILES CC/C=C/CC(=O)N[C@@H](Cc1ccc(O)cc1)C(=O)N[C@@H](C)C(=O)N[C@@H](CC(=O)O)C(=O)N[C@@H](C)C(=O)N[C@H](C(=O)N[C@@H](Cc1ccccc1)C(=O)N[C@H](C(=O)N[C@@H](CC(=O)O)C(=O)N[C@@H](CO)C(=O)N[C@@H](Cc1ccc(O)cc1)C(=O)N[C@@H](CCCNC(=N)N)C(=O)N[C@@H](CCCCN)C(=O)N[C@H](C(=O)N[C@@H](CC(C)C)C(=O)N[C@@H](C)C(=O)N[C@@H](CCC(N)=O)C(=O)N[C@@H](CC(C)C)C(=O)N[C@@H](CCCCN)C(=O)N[C@@H](C)C(=O)N[C@@H](CCCNC(=N)N)C(=O)N[C@@H](CCC(N)=O)C(=O)N[C@@H](CC(=O)O)C(=O)N[C@H](C(=O)N[C@@H](CC(C)C)C(=O)N[C@@H](C)C(=O)N[C@@H](CCCNC(=N)N)C(=O)N[C@@H](C)C(=O)N[C@@H](C)C(=O)N[C@@H](CCCNC(=N)N)C(N)=O)[C@@H](C)CC)C(C)C)[C@@H](C)O)[C@@H](C)CC)", "note": "[Trans-3-hexenoyl-YADAIFTDSYRKVLAQLKARQDILARAAR-NH2 (SEQ ID NO: 26)]", "EC50 as assessed by alkaline phosphatase (AP) induction": 0.13}
{"binder": "YADAIFTDSYRKVLAQLSARQDILARAARAAR (HELM PEPTIDE1{[CC/C=C/CC(=O)[*:2]].Y.A.D.A.I.F.T.D.S.Y.R.K.V.L.A.Q.L.S.A.R.Q.D.I.L.A.R.A.A.R.A.A.R.[am]}$$$$V2.0; SMILES CC/C=C/CC(=O)N[C@@H](Cc1ccc(O)cc1)C(=O)N[C@@H](C)C(=O)N[C@@H](CC(=O)O)C(=O)N[C@@H](C)C(=O)N[C@H](C(=O)N[C@@H](Cc1ccccc1)C(=O)N[C@H](C(=O)N[C@@H](CC(=O)O)C(=O)N[C@@H](CO)C(=O)N[C@@H](Cc1ccc(O)cc1)C(=O)N[C@@H](CCCNC(=N)N)C(=O)N[C@@H](CCCCN)C(=O)N[C@H](C(=O)N[C@@H](CC(C)C)C(=O)N[C@@H](C)C(=O)N[C@@H](CCC(N)=O)C(=O)N[C@@H](CC(C)C)C(=O)N[C@@H](CO)C(=O)N[C@@H](C)C(=O)N[C@@H](CCCNC(=N)N)C(=O)N[C@@H](CCC(N)=O)C(=O)N[C@@H](CC(=O)O)C(=O)N[C@H](C(=O)N[C@@H](CC(C)C)C(=O)N[C@@H](C)C(=O)N[C@@H](CCCNC(=N)N)C(=O)N[C@@H](C)C(=O)N[C@@H](C)C(=O)N[C@@H](CCCNC(=N)N)C(=O)N[C@@H](C)C(=O)N[C@@H](C)C(=O)N[C@@H](CCCNC(=N)N)C(N)=O)[C@@H](C)CC)C(C)C)[C@@H](C)O)[C@@H](C)CC)", "note": "[Trans-3-hexenoyl-YADAIFTDSYRKVLAQLSARQDILARAARAAR-NH2 (SEQ ID NO: 27)]", "EC50 as assessed by alkaline phosphatase (AP) induction": 0.19}
{"binder": "YXDAIFTDSYRKVLAQLKARQDILARAARAAR (HELM PEPTIDE1{Y.[dA].D.A.I.F.T.D.S.Y.R.K.V.L.A.Q.L.K.A.R.Q.D.I.L.A.R.A.A.R.A.A.R.[am]}$$$$V2.0; N-terminus assumed; SMILES CC[C@H](C)[C@H](NC(=O)[C@H](C)NC(=O)[C@H](CC(=O)O)NC(=O)[C@@H](C)NC(=O)[C@@H](N)Cc1ccc(O)cc1)C(=O)N[C@@H](Cc1ccccc1)C(=O)N[C@H](C(=O)N[C@@H](CC(=O)O)C(=O)N[C@@H](CO)C(=O)N[C@@H](Cc1ccc(O)cc1)C(=O)N[C@@H](CCCNC(=N)N)C(=O)N[C@@H](CCCCN)C(=O)N[C@H](C(=O)N[C@@H](CC(C)C)C(=O)N[C@@H](C)C(=O)N[C@@H](CCC(N)=O)C(=O)N[C@@H](CC(C)C)C(=O)N[C@@H](CCCCN)C(=O)N[C@@H](C)C(=O)N[C@@H](CCCNC(=N)N)C(=O)N[C@@H](CCC(N)=O)C(=O)N[C@@H](CC(=O)O)C(=O)N[C@H](C(=O)N[C@@H](CC(C)C)C(=O)N[C@@H](C)C(=O)N[C@@H](CCCNC(=N)N)C(=O)N[C@@H](C)C(=O)N[C@@H](C)C(=O)N[C@@H](CCCNC(=N)N)C(=O)N[C@@H](C)C(=O)N[C@@H](C)C(=O)N[C@@H](CCCNC(=N)N)C(N)=O)[C@@H](C)CC)C(C)C)[C@@H](C)O)", "note": "[Y-a-DAIFTDSYRKVLAQLKARQDILARAARAAR-NH2 (SEQ ID NO: 28)]", "EC50 as assessed by alkaline phosphatase (AP) induction": 0.11}
{"binder": "YADAIFTDSYRKVLAQLKARQDILARAARAAR (HELM PEPTIDE1{[CC/C=C/CC(=O)[*:2]].Y.A.D.A.I.F.T.D.S.Y.R.K.V.L.A.Q.L.K.A.R.Q.D.I.L.A.R.A.A.R.A.A.R.[am]}$$$$V2.0; SMILES CC/C=C/CC(=O)N[C@@H](Cc1ccc(O)cc1)C(=O)N[C@@H](C)C(=O)N[C@@H](CC(=O)O)C(=O)N[C@@H](C)C(=O)N[C@H](C(=O)N[C@@H](Cc1ccccc1)C(=O)N[C@H](C(=O)N[C@@H](CC(=O)O)C(=O)N[C@@H](CO)C(=O)N[C@@H](Cc1ccc(O)cc1)C(=O)N[C@@H](CCCNC(=N)N)C(=O)N[C@@H](CCCCN)C(=O)N[C@H](C(=O)N[C@@H](CC(C)C)C(=O)N[C@@H](C)C(=O)N[C@@H](CCC(N)=O)C(=O)N[C@@H](CC(C)C)C(=O)N[C@@H](CCCCN)C(=O)N[C@@H](C)C(=O)N[C@@H](CCCNC(=N)N)C(=O)N[C@@H](CCC(N)=O)C(=O)N[C@@H](CC(=O)O)C(=O)N[C@H](C(=O)N[C@@H](CC(C)C)C(=O)N[C@@H](C)C(=O)N[C@@H](CCCNC(=N)N)C(=O)N[C@@H](C)C(=O)N[C@@H](C)C(=O)N[C@@H](CCCNC(=N)N)C(=O)N[C@@H](C)C(=O)N[C@@H](C)C(=O)N[C@@H](CCCNC(=N)N)C(N)=O)[C@@H](C)CC)C(C)C)[C@@H](C)O)[C@@H](C)CC)", "note": "[Trans-3-hexenoyl-YADAIFTDSYRKVLAQLKARQDILARAARAAR-NH2 (SEQ ID NO: 31)]", "EC50 as assessed by alkaline phosphatase (AP) induction": 0.1}
{"binder": "YADAIFTDSYRKVLAQLKARQDLLARAARAAR (HELM PEPTIDE1{[CC/C=C/CC(=O)[*:2]].Y.A.D.A.I.F.T.D.S.Y.R.K.V.L.A.Q.L.K.A.R.Q.D.L.L.A.R.A.A.R.A.A.R.[am]}$$$$V2.0; SMILES CC/C=C/CC(=O)N[C@@H](Cc1ccc(O)cc1)C(=O)N[C@@H](C)C(=O)N[C@@H](CC(=O)O)C(=O)N[C@@H](C)C(=O)N[C@H](C(=O)N[C@@H](Cc1ccccc1)C(=O)N[C@H](C(=O)N[C@@H](CC(=O)O)C(=O)N[C@@H](CO)C(=O)N[C@@H](Cc1ccc(O)cc1)C(=O)N[C@@H](CCCNC(=N)N)C(=O)N[C@@H](CCCCN)C(=O)N[C@H](C(=O)N[C@@H](CC(C)C)C(=O)N[C@@H](C)C(=O)N[C@@H](CCC(N)=O)C(=O)N[C@@H](CC(C)C)C(=O)N[C@@H](CCCCN)C(=O)N[C@@H](C)C(=O)N[C@@H](CCCNC(=N)N)C(=O)N[C@@H](CCC(N)=O)C(=O)N[C@@H](CC(=O)O)C(=O)N[C@@H](CC(C)C)C(=O)N[C@@H](CC(C)C)C(=O)N[C@@H](C)C(=O)N[C@@H](CCCNC(=N)N)C(=O)N[C@@H](C)C(=O)N[C@@H](C)C(=O)N[C@@H](CCCNC(=N)N)C(=O)N[C@@H](C)C(=O)N[C@@H](C)C(=O)N[C@@H](CCCNC(=N)N)C(N)=O)C(C)C)[C@@H](C)O)[C@@H](C)CC)", "note": "[Trans-3-hexenoyl-YADAIFTDSYRKVLAQLKARQDLLARAARAAR-NH2 (SEQ ID NO: 32)]", "EC50 as assessed by alkaline phosphatase (AP) induction": 0.11}
{"binder": "YXDAIFTDSYRKVLAQLKARQDLLARAARAAR (HELM PEPTIDE1{Y.[dA].D.A.I.F.T.D.S.Y.R.K.V.L.A.Q.L.K.A.R.Q.D.L.L.A.R.A.A.R.A.A.R.[am]}$$$$V2.0; N-terminus assumed; SMILES CC[C@H](C)[C@H](NC(=O)[C@H](C)NC(=O)[C@H](CC(=O)O)NC(=O)[C@@H](C)NC(=O)[C@@H](N)Cc1ccc(O)cc1)C(=O)N[C@@H](Cc1ccccc1)C(=O)N[C@H](C(=O)N[C@@H](CC(=O)O)C(=O)N[C@@H](CO)C(=O)N[C@@H](Cc1ccc(O)cc1)C(=O)N[C@@H](CCCNC(=N)N)C(=O)N[C@@H](CCCCN)C(=O)N[C@H](C(=O)N[C@@H](CC(C)C)C(=O)N[C@@H](C)C(=O)N[C@@H](CCC(N)=O)C(=O)N[C@@H](CC(C)C)C(=O)N[C@@H](CCCCN)C(=O)N[C@@H](C)C(=O)N[C@@H](CCCNC(=N)N)C(=O)N[C@@H](CCC(N)=O)C(=O)N[C@@H](CC(=O)O)C(=O)N[C@@H](CC(C)C)C(=O)N[C@@H](CC(C)C)C(=O)N[C@@H](C)C(=O)N[C@@H](CCCNC(=N)N)C(=O)N[C@@H](C)C(=O)N[C@@H](C)C(=O)N[C@@H](CCCNC(=N)N)C(=O)N[C@@H](C)C(=O)N[C@@H](C)C(=O)N[C@@H](CCCNC(=N)N)C(N)=O)C(C)C)[C@@H](C)O)", "note": "[Y-a-DAIFTDSYRKVLAQLKARQDLLARAARAAR-NH2 (SEQ ID NO: 30)]", "EC50 as assessed by alkaline phosphatase (AP) induction": 0.18}
{"binder": "YXDAIFTDSYRKVLAQLKLRQDILARAARAAR (HELM PEPTIDE1{Y.[dA].D.A.I.F.T.D.S.Y.R.K.V.L.A.Q.L.K.L.R.Q.D.I.L.A.R.A.A.R.A.A.R.[am]}$$$$V2.0; N-terminus assumed; SMILES CC[C@H](C)[C@H](NC(=O)[C@H](C)NC(=O)[C@H](CC(=O)O)NC(=O)[C@@H](C)NC(=O)[C@@H](N)Cc1ccc(O)cc1)C(=O)N[C@@H](Cc1ccccc1)C(=O)N[C@H](C(=O)N[C@@H](CC(=O)O)C(=O)N[C@@H](CO)C(=O)N[C@@H](Cc1ccc(O)cc1)C(=O)N[C@@H](CCCNC(=N)N)C(=O)N[C@@H](CCCCN)C(=O)N[C@H](C(=O)N[C@@H](CC(C)C)C(=O)N[C@@H](C)C(=O)N[C@@H](CCC(N)=O)C(=O)N[C@@H](CC(C)C)C(=O)N[C@@H](CCCCN)C(=O)N[C@@H](CC(C)C)C(=O)N[C@@H](CCCNC(=N)N)C(=O)N[C@@H](CCC(N)=O)C(=O)N[C@@H](CC(=O)O)C(=O)N[C@H](C(=O)N[C@@H](CC(C)C)C(=O)N[C@@H](C)C(=O)N[C@@H](CCCNC(=N)N)C(=O)N[C@@H](C)C(=O)N[C@@H](C)C(=O)N[C@@H](CCCNC(=N)N)C(=O)N[C@@H](C)C(=O)N[C@@H](C)C(=O)N[C@@H](CCCNC(=N)N)C(N)=O)[C@@H](C)CC)C(C)C)[C@@H](C)O)", "note": "[Y-a-DAIFTDSYRKVLAQLKLRQDILARAARAAR-NH2 (SEQ ID NO: 29)]", "EC50 as assessed by alkaline phosphatase (AP) induction": 0.08}
{"binder": "Ac-YADAIFTDSYRKVLAQLSARKLLQDILSR-NH2", "note": "[Ac-YADAIFTDSYRKVLAQLSARKLLQDILSR-NH2 (SEQ ID NO: 43)]", "EC50 as assessed by alkaline phosphatase (AP) induction": 0.25}
{"binder": "YSDAIFTDSYRKVLAQLKARQDILARAARAAR-NH2", "note": "[YSDAIFTDSYRKVLAQLKARQDILARAARAAR-NH2 (SEQ ID NO: 33)]", "EC50 as assessed by alkaline phosphatase (AP) induction": 0.25}
